Consider eight molecules from patent US20100254901, “Compositions comprising nucleic acid aptamers” (published 2010).

In series [1] the test system is Bovine gamma globulin (BGG) (Bos taurus). Nature of the series: FP. The following applies: control protein.
Series [2] concerns the target Bovine serum albumin (BSA) (Bos taurus, UniProt P02769 P02769:25-607). The experiment in a line: FP; control protein. The settings on record: label: 5'-fluorescein. The source says: (§1) A fluorescent polarization (FP) assay was used to test the affinity of several oligonucleotide sequences to CEA (Table 4). The initial studies focused on 5 oligonucleotides. Clone 22 and clone 26 contained the sequences with the highest identity to the G-rich motif. The aptamers were synthesized with fluorescein at their 5′ ends and binding was analysis using the Beacon 2000 instrument equipped with a 530 nm emission filter and a 490 nm excitation filter from Pan Vera Corp. (Madison Wis.).
(§2) In the FP assay, fluorescently labelled aptamers are added to the protein. Binding is detected by an increase in fluorescent polarization cause by the decrease in rotation of the protein bound fluorescein (FIG. 4A). The Kd is calculated by determining the CEA concentration at the half maximal mP value as determined from plots of averaged stable mP data as shown in FIGS. 4B and C. […] Unfortunately, others members of the CEA superfamily are not available commercially.

For series [3], the target named is T1, Carcinoembryonic antigen (CEA) (Homo sapiens, UniProt P06731 P06731:35-685). Nature of the series: FP; physiological binding buffer. The settings on record: tags: Calbiochem; label: 5'-fluorescein.
Text: as §1, §2

The target in series [4] is T1, Carcinoembryonic antigen (CEA). Nature of the series: FP; primer region absent; physiological binding buffer. The settings on record: tags: Calbiochem; label: 5'-fluorescein.
Text: as §1, §2

For series [5] the target is unchanged. The experiment in a line: FP; physiological binding buffer; table header prints nM-1, text nM. The settings on record: tags: Calbiochem; label: 5'-fluorescein.
Text: as §1, §2
FIG. 4. Binding of clone26bases 1-50 to CEA monitored by FP in a physiological binding buffer using 4 nM aptamer. (A) Shown is the mP as a function a reading number (sample #). CEA (8 nM) was added after the tenth reading. (B) Shown is the average mP vs aptamer concentration. (C) Shown is the average mP vs CEA concentration within the linear range.

What is called Kd is the concentration at which binding is half-saturated. Low readings indicate a tighter complex, high ones a looser complex.

T1 sequence (P06731 35-685, one chain of several): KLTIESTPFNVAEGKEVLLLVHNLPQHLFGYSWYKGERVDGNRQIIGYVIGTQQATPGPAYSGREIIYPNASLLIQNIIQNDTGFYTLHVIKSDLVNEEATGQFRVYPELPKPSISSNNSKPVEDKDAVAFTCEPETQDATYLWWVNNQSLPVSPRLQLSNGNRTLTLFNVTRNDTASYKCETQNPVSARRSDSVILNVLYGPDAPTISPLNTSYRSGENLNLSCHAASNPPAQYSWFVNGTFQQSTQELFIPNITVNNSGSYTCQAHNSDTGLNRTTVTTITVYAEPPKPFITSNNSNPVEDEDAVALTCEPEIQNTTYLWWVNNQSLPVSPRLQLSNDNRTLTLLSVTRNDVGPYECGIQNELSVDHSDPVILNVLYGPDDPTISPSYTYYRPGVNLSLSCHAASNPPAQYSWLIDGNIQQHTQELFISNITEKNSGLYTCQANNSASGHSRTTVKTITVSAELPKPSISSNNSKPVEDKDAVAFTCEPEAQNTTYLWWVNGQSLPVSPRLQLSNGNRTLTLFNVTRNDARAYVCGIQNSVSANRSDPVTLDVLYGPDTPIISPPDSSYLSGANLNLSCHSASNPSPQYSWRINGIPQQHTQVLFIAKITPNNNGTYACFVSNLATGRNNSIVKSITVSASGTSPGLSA
Sequence of Bovine serum albumin (BSA) (P02769 25-607, one chain of several): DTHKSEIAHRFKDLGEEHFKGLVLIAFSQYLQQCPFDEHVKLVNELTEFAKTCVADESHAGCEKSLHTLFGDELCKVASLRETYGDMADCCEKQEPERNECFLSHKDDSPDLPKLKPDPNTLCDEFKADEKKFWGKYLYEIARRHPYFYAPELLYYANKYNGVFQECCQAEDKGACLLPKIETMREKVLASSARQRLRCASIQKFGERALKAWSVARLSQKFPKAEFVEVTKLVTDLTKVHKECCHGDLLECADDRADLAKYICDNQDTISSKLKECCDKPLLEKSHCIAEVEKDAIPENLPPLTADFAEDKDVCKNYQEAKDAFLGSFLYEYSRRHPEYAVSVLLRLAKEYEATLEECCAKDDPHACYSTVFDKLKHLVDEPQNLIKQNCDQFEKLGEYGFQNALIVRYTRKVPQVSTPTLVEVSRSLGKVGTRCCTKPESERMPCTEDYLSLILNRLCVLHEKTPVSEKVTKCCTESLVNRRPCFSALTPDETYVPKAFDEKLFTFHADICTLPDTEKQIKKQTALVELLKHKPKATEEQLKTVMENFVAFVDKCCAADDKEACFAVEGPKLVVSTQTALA

For “ATACCAGCTTATTCAATTGGGGTAGGGGGCGAAGCGATACCCTAATCAGC [clone26bases1-50]”, in series [1], the Kd stood at 100 nM.

In turn, ATACCAGCTTATTCAATT [5' primer] showed a Kd in series [1] of 400 nM. “GGGGGAGGGGGCGACGCGATACCC [clone22bases19-42]” showed a Kd in series [1] of 250 nM. On the same count and under the same terms, under “ATACCAGCTTATTCAATTGGGGGAGGGGGCGACGCGATACCC [clone22bases1-42]” stands 500 nM.

B1: 5' primer (ssDNA)
DNA: ATACCAGCTTATTCAATT
With B1, the Kd in series [2] stood at 300 nM; in series [3], 5 nM.

B2: clone22bases19-42 (ssDNA)
DNA: GGGGGAGGGGGCGACGCGATACCC
Turning to B2, the dissociation constant Kd in series [2] was 400 nM; in series [4], 20 nM.

B3: clone22bases1-42 (ssDNA)
DNA: ATACCAGCTTATTCAATTGGGGGAGGGGGCGACGCGATACCC
Regarding B3, the values for the Kd in series [2] and in series [3] were 200 nM and 5 nM, respectively.

B4: clone26bases1-50 (ssDNA)
DNA: ATACCAGCTTATTCAATTGGGGTAGGGGGCGAAGCGATACCCTAATCAGC
With B4, the Kd in series [5] is 4 nM; in series [2] it was 100 nM.
